Measurements published in patent publication US20230340090A1.
Positions count from the first letter of the chain named.

T1: TP-24 peptide (human)
T1 sequence (peptide, biotinylated): REFFSQYGDVMDVFI

T2: TP-25 peptide (human)
T2 sequence (peptide, biotinylated): VMDVFIPKPFRAFAF

B1: ACI-7062-404D6-Ab2 (antibody, IgG3, V domains shown)
VH: QVTLKESGPGILQPSQTLSLTCSFSGFSLSTYGIGVGWIRQPSGKGLEWLAHIWWNDYKYYNTALKSRLTISKDTSNNRVFLKIASVDTADTATYYCARVYGNLYYFDYWGQGTTLTVSS
VL: DVLMTQTPLSLPVSLGDQASISCRSSQSIVHGSGNTYLEWYLQKPGQSPKLLIYKVSNRFSGVPDRFSGSGSGTDFTLRISRVEAEDLGVYYCFQGSHVPTFGAGTKLELKR
B2: ACI-7062-416A11-Ab1 (antibody, IgG2a, V domains shown)
VH: B1 VH with P14S, Y58N, R79Q, T92A, D108G
VL: B1 VL with Q18R, G32S, R79K, H98R
B3: ACI-7062-415C4-Ab1 (antibody, IgG1, V domains shown)
VH: B1 VH with Y58N, N62K, R79Q, T92S, D108G
VL: B1 VL with G32S, S33T, R79K, H98R
B4: ACI-7062-410H3-Ab1 (antibody, IgG1, V domains shown)
VH: DVQLVESGGGLVQPGGSRRLSCAASGFTFSSFGMHWVRQAPEKGLEWVAYIRSGSDIIYYADSVKGRFTISRDNPENTLFLQMTSLRSEDTAMYYCARSGTTVPFDYWGQGTSLTVSS
VL: DIVMTQSPSSLAMSVGQKVTMSCKSSQSLLNSGNQKNYLAWYQQKPGQSPELLLYFASTRASGVPDRFIGSGSGTDFTLTISSVQAEDLADYFCQQHYSIPLTFGAGTKLELKR
B5: ACI-7062-401A2-Ab2 (antibody, IgG1, V domains shown)
VH: B4 VH with S31R
VL: B4 VL with N34D, T78S
B6: ACI-7062-412E12-Ab1 (antibody, IgG1, V domains shown)
VH: B4 VH with S31R
VL: B4 VL with N34D, T78S
B7: ACI-7062-412A7-Ab1 (antibody, IgG2b, V domains shown)
VH: B4 VH
VL: B4 VL

These binders were tested against T1, TP-24 peptide (human) (assay: indirect ELISA, biotinylated 15-mer on streptavidin plate).

Row | OD (O.D. (405 nm)) | Binder
1 | 4 | B1
2 | 2.9 | B2
3 | 3.8 | B3
4 | 3.8 | B4
5 | 2.5 | B5
6 | 3.2 | B6
7 | 4 | B7

The binders below were run against T2, TP-25 peptide (human) in the same assay as above.

Row | OD (O.D. (405 nm)) | Binder
8 | 0.9 | B1
9 | 0.9 | B2
10 | 1.2 | B3
11 | 0.8 | B4
12 | 1 | B5
13 | 1.2 | B6
14 | 1.4 | B7
